Data published in US20240360214A1 (Pfizer, published 2024).
Read-outs that look alike come from different tables or passages of the source.

Tests used:
[1] = target: T1, human LILRB1 (huLILRB1), purified recombinant protein from R&D Systems (human, UniProt Q8NHL6 24-458, limits assumed); experiment: SPR (Biacore 8K, 37 C), antibody captured by anti-human Fc, huLILRB1 as analyte, 1:1 fit
T1 construct: Bought protein, used as the SPR analyte and as the ELISA coat; The catalog number 8429-T4 is printed once for 'human LILRB2 or LILRB1'
Method: Biacore kinetic assays were conducted at 37° C. with a collection rate of 10 Hz using the Biacore 8K and 8K+instruments (Cytiva). Anti-LILRB2 antibodies were captured by an anti-human IgG (Fc specific) antibody (BR-1008-39, Cytiva) covalently coupled onto a CM5 sensor chip (29-1496-03, Cytiva) according to the manufacturer's instructions. The final capture levels of the antibodies ranged from 20 resonance units (RU) to 60 RU. HBS-EP+pH 7.4 (10 mM HEPES pH 7.4, 150 mM NaCl, 3 mM EDTA, 0.05% Tween 20) was used as sample and running buffer. Flow cell 1 was used as a reference flow cell. […] Dilutions were prepared in duplicate and injected over all flow cells for 60 s at flow rate of 50 μl per minute. Dissociation was monitored for 600 s and the surface was regenerated with two 30 s injections of 3M MgCl₂ at flow rate of 50 μl per minute. The resulting data was double referenced (Myszka, D. G. Improving biosensor analysis. J. Mol. Recognit. 12:279-284; (1999). Rate constants and affinities were determined by fitting the sensorgram data to a Langmuir 1:1 model using Biacore Insight Evaluation software version 3.0.12 (Cytiva). Results are summarized in Table 7.

[2] = target: T2, LILRB1 expressed on THP1 cells (human, UniProt Q8NHL6 24-650); experiment: flow cytometry competition with PE HLA-G tetramer on THP1-LILRB1 cells
T2 construct: whole, on cells; also called THP1 LILRB1 expressing cells; THP1-LILRB1 cells
Method: (§1) LILRB1 or LILRB2 overexpressing THP1 cells were prepared in FACS buffer (0.5% BSA in PBS) and seeded in 100 μl/well (96 well plate) at 1λ10⁶ cells/ml concentration. The tested antibodies were serially diluted 3-fold into assay buffer starting from 200 nM. 40 μl of serial diluted antibody together with 40 μl of PE labelled HLA-G tetramer (FRED HUTCH IMT40509) at 2 ug/ml were added to each well and incubated on ice for 1 hour. The cells were washed 2 times with FACS buffer and resuspended in 50 μl/well FACS buffer containing 1:1000 dilution of LIVE/Dead fixable violet dead cell stain (Invitrogen #L34964), incubated on ice for 15 minutes. The cells were then washed with FACS buffer for 2 times and resuspended in 80 μl of Cytofix buffer (BD Cat #554655).
(§2) The cell-based HLA-G ligand blocking assays followed the same procedure as described in Example 2.

[3] = target: T3, human LILRB2 (huLILRB2), purified recombinant protein (human, UniProt Q8N423 22-458, limits assumed); experiment: SPR (Biacore 8K, 37 C), antibody captured by anti-human Fc, huLILRB2 as analyte, 1:1 fit
T3 construct: Bought protein, used as the SPR analyte and as the ELISA coat; also called huLILIB2

huLILRB3 = huLILRB3 (human, UniProt O75022 24-443, limits assumed); experiment: ELISA, target coated on the plate, detection with anti-human IgG-HRP, OD at 450 nm
Method: (§3) Purified target proteins huLILRA1, A2, A3, A4, A5, A6, huLILRB1, B2, B3, B4 and B5 (all purchased from R&D) were coated on Nunc-Maxisorb 96-well ELISA plate at 1 ug/ml concentration and stored at 4° C. overnight. Plate was washed 3 times with PBS+0.05% Tween-20 and blocked with PBS+3% milk for 1 hour at room temperature. Tested LILRB1/LILRB2 bispecific antibody was serially diluted 5-fold in PBS+3% milk, starting from 133 nM. Blocking solution was removed and serially diluted antibody was added and incubated for 1 hour at room temperature. Plate was washed and a secondary detecting antibody (goat anti-human IgG-HRP from Invitrogen, Cat #31413, 1:5000) was added and incubated for 30 minutes at room temperature. Plate was washed again for 5 times; signal was developed using TMB substrate and the reaction stopped with 0.18M H₂SO₄. Absorbance was read at 450 nm on an envision plate reader (Perkin Elmer). […] There were no binding activities observed to any of the huLILRA family members tested, and no binding to huLILRB3, B4 or B5.

huLILRA1 [4] = target: T4, huLILRA1 (human, UniProt O75019 17-461, limits assumed); experiment: as above
Method: as §3

huLILRA4 = huLILRA4 (human, UniProt P59901 24-446, limits assumed); experiment: as above
Method: as §3

huLILRB4 = huLILRB4 (human, UniProt Q8NHJ6 22-259, limits assumed); experiment: as above
Method: as §3

huLILRA6 = huLILRA6 (human, UniProt Q6PI73 24-447, limits assumed); experiment: as above
Method: as §3

huLILRA2 [5] = target: T5, huLILRA2 (human, UniProt Q8N149 24-449, limits assumed); experiment: as above
Method: as §3

[6] = target: T3, human LILRB2 (huLILRB2), purified …; experiment: as above
Method: as §3

huLILRA3 = huLILRA3 (human, UniProt Q8N6C8 24-439); experiment: as above
Method: as §3

huLILRA5 [7] = target: T6, huLILRA5 (human, UniProt A6NI73 42-268, limits assumed); experiment: as above
Method: as §3

huLILRB5 = huLILRB5 (human, UniProt O75023 24-458, limits assumed); experiment: as above
Method: as §3

[8] = target: T7, LILRB2 expressed on THP1 cells (human, UniProt Q8N423 22-597); experiment: flow cytometry competition with PE HLA-G tetramer on THP1-LILRB2 cells
T7 construct: whole, on cells; also called THP1 LILRB2 expressing cells; THP1-LILRB2 cells
Method: as §1, §2

huLILRA1 [9] = target: T4, huLILRA1; experiment: SPR (Biacore), antibody captured
huLILRA2 [10] = target: T5, huLILRA2; experiment: SPR (Biacore), antibody captured
huLILRA5 [11] = target: T6, huLILRA5; experiment: SPR (Biacore), antibody captured
[12] = target: T2, LILRB1 expressed on THP1 cells; experiment: flow cytometry competition with PE HLA-G tetramer on THP1-LILRB1 cells; remark: listed apart in the source
Method: as §1

[13] = target: T2, LILRB1 expressed on THP1 cells; experiment: flow cytometry competition with PE HLA-G tetramer on THP1-LILRB1 cells (THP-B1)
Method: as §1

[14] = target: T1, human LILRB1 (huLILRB1), purified …; experiment: SPR (Biacore 8K, 37 C), antibody captured by anti-human Fc, huLILRB1 as analyte, 1:1 fit; remark: listed apart in the source
Method: Biacore kinetic assays were conducted at 37° C. with a collection rate of 10 Hz using the Biacore 8K and 8K+ instruments (Cytiva). […] The final capture levels of the antibodies ranged from 20 resonance units (RU) to 60 RU. HBS-EP+pH 7.4 (10 mM HEPES pH 7.4, 150 mM NaCl, 3 mM EDTA, 0.05% Tween 20) was used as sample and running buffer. Flow cell 1 was used as a reference flow cell. Two-fold serial dilutions of human LILRB2 or LILRB1 (R&D Systems, Catalog number: 8429-T4) were prepared with concentrations from 45 nM to 1.667 nM for LILRB2; 405 nM to […] for LILRB1. Dilutions were prepared in duplicate and injected over all flow cells for 60 s at flow rate of 50 μl per minute. Dissociation was monitored for 600 s and the surface was regenerated with two 30 s injections of 3M MgCl₂ at flow rate of 50 μl per minute. The resulting data was double referenced (Myszka, D. G. Improving biosensor analysis. J. Mol. Recognit. 12:279-284; (1999). Rate constants and affinities were determined by fitting the sensorgram data to a Langmuir 1:1 model using Biacore Insight Evaluation software version 3.0.12 (Cytiva).

T2 sequence (Q8NHL6 24-650): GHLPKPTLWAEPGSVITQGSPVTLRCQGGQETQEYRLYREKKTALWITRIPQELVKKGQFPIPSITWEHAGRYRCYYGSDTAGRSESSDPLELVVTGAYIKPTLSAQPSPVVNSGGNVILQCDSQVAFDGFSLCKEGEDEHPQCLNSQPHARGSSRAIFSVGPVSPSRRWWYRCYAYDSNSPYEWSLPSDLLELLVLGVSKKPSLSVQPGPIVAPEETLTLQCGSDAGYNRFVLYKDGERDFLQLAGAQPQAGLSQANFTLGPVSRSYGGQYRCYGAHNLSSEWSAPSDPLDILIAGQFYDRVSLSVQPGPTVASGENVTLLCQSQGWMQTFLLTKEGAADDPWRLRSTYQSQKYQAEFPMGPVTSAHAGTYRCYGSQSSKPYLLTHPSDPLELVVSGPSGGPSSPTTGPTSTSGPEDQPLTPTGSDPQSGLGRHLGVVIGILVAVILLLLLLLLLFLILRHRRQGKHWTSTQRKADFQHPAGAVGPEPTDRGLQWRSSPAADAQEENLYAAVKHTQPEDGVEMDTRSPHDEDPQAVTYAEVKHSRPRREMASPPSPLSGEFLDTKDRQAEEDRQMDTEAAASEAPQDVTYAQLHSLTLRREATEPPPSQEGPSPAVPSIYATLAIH
T3 sequence (Q8N423 22-458 limits assumed): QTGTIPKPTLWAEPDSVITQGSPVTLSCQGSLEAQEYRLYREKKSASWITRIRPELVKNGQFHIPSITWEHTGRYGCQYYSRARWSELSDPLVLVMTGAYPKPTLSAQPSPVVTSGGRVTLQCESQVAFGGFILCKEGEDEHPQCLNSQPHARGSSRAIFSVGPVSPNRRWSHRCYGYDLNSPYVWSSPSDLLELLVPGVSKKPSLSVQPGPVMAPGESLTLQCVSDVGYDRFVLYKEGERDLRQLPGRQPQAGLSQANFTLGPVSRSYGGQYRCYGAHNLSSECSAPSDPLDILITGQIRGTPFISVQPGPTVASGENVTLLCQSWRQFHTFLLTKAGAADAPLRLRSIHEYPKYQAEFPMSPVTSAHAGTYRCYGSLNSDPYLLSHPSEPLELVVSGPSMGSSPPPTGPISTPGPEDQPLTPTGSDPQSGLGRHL
T1 sequence (Q8NHL6 24-458 limits assumed): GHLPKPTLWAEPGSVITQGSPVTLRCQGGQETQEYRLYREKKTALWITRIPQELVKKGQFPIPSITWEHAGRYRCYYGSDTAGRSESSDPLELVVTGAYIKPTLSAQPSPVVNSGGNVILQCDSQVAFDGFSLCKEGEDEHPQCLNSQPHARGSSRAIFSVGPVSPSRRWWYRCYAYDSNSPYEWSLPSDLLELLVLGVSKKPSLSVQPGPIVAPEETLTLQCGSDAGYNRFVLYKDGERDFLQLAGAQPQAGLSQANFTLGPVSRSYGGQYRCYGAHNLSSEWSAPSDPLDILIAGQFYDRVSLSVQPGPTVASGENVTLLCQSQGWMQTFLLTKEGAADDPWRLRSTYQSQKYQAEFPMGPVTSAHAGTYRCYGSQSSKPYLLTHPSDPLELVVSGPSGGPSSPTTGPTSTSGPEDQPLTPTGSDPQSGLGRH
T6 sequence (A6NI73 42-268 limits assumed): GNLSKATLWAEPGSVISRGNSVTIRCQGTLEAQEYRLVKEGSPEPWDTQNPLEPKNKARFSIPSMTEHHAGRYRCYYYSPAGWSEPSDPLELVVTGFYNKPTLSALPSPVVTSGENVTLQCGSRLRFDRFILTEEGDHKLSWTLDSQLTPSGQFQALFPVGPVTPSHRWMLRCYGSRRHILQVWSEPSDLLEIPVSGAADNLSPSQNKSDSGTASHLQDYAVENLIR
T5 sequence (Q8N149 24-449 limits assumed): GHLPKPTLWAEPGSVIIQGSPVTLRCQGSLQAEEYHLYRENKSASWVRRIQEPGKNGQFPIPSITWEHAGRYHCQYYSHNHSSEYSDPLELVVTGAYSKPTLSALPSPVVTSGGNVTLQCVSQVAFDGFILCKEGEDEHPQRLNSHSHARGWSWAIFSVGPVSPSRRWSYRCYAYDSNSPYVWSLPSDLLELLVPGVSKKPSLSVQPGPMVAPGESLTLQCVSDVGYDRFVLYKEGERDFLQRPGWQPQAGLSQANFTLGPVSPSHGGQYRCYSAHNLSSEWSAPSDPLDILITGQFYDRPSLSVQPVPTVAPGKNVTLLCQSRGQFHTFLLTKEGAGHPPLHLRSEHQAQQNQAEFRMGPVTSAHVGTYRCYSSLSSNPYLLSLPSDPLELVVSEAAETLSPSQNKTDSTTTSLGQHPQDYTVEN
T4 sequence (O75019 17-461 limits assumed): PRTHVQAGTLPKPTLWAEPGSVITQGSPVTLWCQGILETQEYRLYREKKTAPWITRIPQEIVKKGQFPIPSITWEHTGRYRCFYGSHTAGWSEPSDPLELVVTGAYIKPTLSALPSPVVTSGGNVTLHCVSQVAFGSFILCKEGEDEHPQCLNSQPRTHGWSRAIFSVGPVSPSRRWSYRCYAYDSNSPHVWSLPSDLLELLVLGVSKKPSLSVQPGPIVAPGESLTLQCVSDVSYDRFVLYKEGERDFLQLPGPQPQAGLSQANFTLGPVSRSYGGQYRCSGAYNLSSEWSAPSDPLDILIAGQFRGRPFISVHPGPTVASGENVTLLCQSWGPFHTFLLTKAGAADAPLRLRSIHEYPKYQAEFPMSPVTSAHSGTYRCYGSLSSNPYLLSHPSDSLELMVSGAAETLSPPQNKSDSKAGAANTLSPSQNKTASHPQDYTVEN
Sequence of huLILRA3 (Q8N6C8 24-439 limits assumed): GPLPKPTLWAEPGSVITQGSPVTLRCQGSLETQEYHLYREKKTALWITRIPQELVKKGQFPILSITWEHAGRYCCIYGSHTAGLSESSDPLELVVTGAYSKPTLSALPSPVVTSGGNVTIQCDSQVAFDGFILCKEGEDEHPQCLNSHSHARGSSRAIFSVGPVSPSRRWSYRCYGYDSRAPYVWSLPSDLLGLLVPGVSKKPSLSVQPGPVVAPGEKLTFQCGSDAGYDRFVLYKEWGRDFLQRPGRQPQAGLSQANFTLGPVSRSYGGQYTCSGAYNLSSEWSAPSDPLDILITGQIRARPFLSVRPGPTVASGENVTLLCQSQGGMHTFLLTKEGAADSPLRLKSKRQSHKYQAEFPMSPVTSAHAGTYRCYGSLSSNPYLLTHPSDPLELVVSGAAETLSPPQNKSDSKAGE
Sequence of huLILRB3 (O75022 24-443 limits assumed): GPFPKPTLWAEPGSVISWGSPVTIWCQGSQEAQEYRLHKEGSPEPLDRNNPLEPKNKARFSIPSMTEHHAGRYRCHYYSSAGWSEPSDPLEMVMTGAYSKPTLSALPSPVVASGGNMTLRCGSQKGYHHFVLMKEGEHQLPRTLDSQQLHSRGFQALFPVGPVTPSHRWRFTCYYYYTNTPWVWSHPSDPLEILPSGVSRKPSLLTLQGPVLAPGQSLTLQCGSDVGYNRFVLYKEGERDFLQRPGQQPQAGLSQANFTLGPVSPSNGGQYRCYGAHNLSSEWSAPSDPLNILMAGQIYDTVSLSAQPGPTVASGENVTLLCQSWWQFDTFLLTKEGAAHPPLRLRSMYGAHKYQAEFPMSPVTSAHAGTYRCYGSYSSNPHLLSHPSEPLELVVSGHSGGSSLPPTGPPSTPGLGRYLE
Sequence of huLILRB5 (O75023 24-458 limits assumed): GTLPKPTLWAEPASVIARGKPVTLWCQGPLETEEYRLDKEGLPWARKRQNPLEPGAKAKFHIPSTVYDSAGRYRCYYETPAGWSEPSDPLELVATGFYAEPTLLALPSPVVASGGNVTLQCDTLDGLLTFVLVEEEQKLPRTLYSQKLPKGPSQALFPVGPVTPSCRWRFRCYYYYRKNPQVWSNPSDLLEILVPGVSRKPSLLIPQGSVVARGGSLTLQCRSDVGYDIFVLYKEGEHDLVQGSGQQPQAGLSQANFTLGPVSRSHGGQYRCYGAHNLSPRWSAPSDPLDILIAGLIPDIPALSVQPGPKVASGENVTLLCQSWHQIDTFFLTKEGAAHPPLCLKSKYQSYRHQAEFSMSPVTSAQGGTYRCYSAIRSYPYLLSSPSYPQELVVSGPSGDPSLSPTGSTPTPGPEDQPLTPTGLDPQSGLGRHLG
T7 sequence (Q8N423 22-597): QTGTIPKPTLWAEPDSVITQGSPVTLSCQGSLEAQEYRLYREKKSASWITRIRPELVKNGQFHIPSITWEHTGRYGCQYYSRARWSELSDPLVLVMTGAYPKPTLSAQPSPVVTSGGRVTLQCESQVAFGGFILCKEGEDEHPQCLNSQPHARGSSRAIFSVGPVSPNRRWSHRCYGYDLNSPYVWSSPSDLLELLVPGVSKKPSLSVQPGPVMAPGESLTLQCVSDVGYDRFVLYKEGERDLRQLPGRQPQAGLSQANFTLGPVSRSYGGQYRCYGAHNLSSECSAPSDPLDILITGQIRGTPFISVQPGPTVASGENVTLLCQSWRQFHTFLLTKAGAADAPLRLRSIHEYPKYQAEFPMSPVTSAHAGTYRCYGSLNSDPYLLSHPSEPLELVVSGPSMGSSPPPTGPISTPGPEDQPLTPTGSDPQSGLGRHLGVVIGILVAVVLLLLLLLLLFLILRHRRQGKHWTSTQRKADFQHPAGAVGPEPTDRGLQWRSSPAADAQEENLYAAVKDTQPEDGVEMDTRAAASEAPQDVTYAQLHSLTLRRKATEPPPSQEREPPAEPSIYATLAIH
Sequence of huLILRA4 (P59901 24-446 limits assumed): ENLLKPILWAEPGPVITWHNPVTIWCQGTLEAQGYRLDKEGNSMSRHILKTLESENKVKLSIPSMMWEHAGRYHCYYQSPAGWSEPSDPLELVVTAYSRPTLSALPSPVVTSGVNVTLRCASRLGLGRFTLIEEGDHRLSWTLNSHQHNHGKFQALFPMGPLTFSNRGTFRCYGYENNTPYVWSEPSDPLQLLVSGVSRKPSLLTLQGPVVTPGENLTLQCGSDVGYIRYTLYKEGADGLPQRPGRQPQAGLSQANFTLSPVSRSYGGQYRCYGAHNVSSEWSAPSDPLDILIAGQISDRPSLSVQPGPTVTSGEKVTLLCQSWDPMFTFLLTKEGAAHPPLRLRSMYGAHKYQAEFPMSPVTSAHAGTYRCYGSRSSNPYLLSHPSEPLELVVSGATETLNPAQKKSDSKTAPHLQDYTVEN

B1: LILRB1xLILRB2 bispecific antibody BsAb-1882 (bispecific antibody)
heavy 1: not shown
light 1: SYELTQPPSVSVSPGQTASITCGGNNIGSKGVHWYQQKPGQSPVLVISYDSDRPSGIPERFSGSNSGNTATLTISGTQAMDEADYYCQVWDSSTRVFGTGTKVTVLGQPKAAPSVTLFPPSSEELQANKATLVCLISDFYPGAVTVAWKADSSPVKAGVETTTPSKQSNNKYAASSYLSLTPEQWKSHRSYSCQVTHEGSTVEKTVAPTECSDKTHTCPPCPAPEAAGAPSVFLFPPKPKDTLMISRTPEVTCVVVDVSHEDPEVKFNWYVDGVEVHNAKTKPREEQYNSTYRVVSVLTVLHQDWLNGKEYKCKVSNKALPAPIEKTISKAKGQPREPQVYTLPPCREEMTKNQVSLSCAVKGFYPSDIAVEWESNGQPENNYKTTPPVLDSDGSFFLVSKLTVDKSRWQQGNVFSCSVMHEALHNHYTQKSLSLSPGK
heavy 2: EVQLLESGGGLVQPGGSLRLSCAASGFTFSSYAMSWVRQAPGKGLEWVSAISGSGGSTYYADSVKGRFTISRDNSKNTLYLQMNSLRAEDTAVYYCWRWLNLGDAFDIWGQGTMVTVSSASTKGPSVFPLAPSSKSTSGGTAALGCLVKDYFPEPVTVSWNSGALTSGVHTFPAVLQSSGLYSLSSVVTVPSSSLGTQTYICNVNHKPSNTKVDKKVEPKSCDKTHTCPPCPAPEAAGAPSVFLFPPKPKDTLMISRTPEVTCVVVDVSHEDPEVKFNWYVDGVEVHNAKTKPREEQYNSTYRVVSVLTVLHQDWLNGKEYKCKVSNKALPAPIEKTISKAKGQPREPQVCTLPPSREEMTKNQVSLWCLVKGFYPSDIAVEWESNGQPENNYKTTPPVLDSDGSFFLYSKLTVDKSRWQQGNVFSCSVMHEALHNHYTQKSLSLSPGK
light 2: not shown
notes: The B1 arm Fc chain is joined to the light chain CL; also called LILRB1/LILRB2 bispecific antibody
Kd [1]: 29.8 nM | koff [1]: 0.0135 s⁻¹ | kon [1]: 457000 M⁻¹ s⁻¹ | t½ [1]: 51.3 s | IC50 [2]: 37.6 nM | Kd [3]: 0.73 nM | koff [3]: 0.000323 s⁻¹ | kon [3]: 443000 M⁻¹ s⁻¹ | t½ [3]: 35.8 min | binding result (huLILRB3): no binding (tested: about 130 nM) | binding result (huLILRA1 [4]): no binding (tested: about 130 nM) | binding result (huLILRA4): no binding (tested: about 130 nM) | binding result (huLILRB4): no binding (tested: about 130 nM) | binding result (huLILRA6): no binding (tested: about 130 nM) | binding result (huLILRA2 [5]): no binding (tested: about 130 nM) | EC50 (read off the curve) [6]: ~0.6 nM | binding result (huLILRA3): no binding (tested: about 130 nM) | binding result (huLILRA5 [7]): no binding (tested: about 130 nM) | binding result (huLILRB5): no binding (tested: about 130 nM) | IC50 [8]: 15.4 nM

B2: anti-LILRB1 antibody Ab-B1-1704 (antibody, human IgG1, lambda, V domains shown)
VH: EVQLVESGGGLVQPGGSLRLSCAASGFTFSSYAMHWVRQAPGKGLEWVAVISYDGSNKYYADSVKGRFTISRDNAKNSLYLQMNSLRAEDTAVYYCARDKGIGTSPLDYWGQGTLVTVSS
VL: SYELTQPPSVSVSPGQTASITCGGNNIGSKGVHWYQQKPGQSPVLVISYDSDRPSGIPERFSGSNSGNTATLTISGTQAMDEADYYCQVWDSSTRVFGTGTKVTVLG
binding result (huLILRA1 [9]): no binding | binding result (huLILRA2 [10]): no binding | binding result (huLILRA5 [11]): no binding | IC50 [12]: 1.5 nM | EC50 [13]: 2.69 nM | Kd [14]: 26 nM | koff [14]: 0.014 s⁻¹ | kon [14]: 539000 M⁻¹ s⁻¹ | t½ [14]: 49.5 s
